Km and Vmax data for two substances are collected here from publication PMC5794333, “Identification of osmoadaptive strategies in the halophile, heterotrophic ciliate Schmidingerothrix salinarum” (PLoS Biology, 2018).

As usually defined, the Km is the concentration of substrate that gives half-maximal velocity. By Vmax is commonly meant the rate approached at saturating substrate.

Series [1] concerns O=C(O)CC(C(=O)O)C(O)C(=O)O. Description: purified protein. The settings on record: 0.05 M NaCl, 0.8 mM NADP+, 1 mM MgCl2, 32.5 mM Tris/HCl pH 7.5, concentration as DL-isocitrate, text b40 prints 0.010 mM, the table's Vmax/Km fits 0.019.
In another series the test system is O=C(O)CC(=O)C(=O)O. Briefly: purified protein. To be noted: 0.05 M NaCl, 0.3 mM NADH, 32.5 mM Tris/HCl pH 7.5.

Turning to “ICDHS.salinarum (Schmidingerothrix salinarum)”, in series [1], the Michaelis constant (Km) is 0.019 mM and the maximum rate (Vmax) is 6.8 µmol/min/mg.
As to “MDHS.salinarum (Schmidingerothrix salinarum)”, in the series on O=C(O)CC(=O)C(=O)O, the Michaelis-Menten constant (Km) came to 0.038 mM and the Vmax was determined as 2060 µmol/min/mg.
